Assay results as given in publication PMC8972799.

Target: T1, D-alanyl carrier protein ligase DltA from Staphylococcus aureus Mu50 (S. aureus) (UniProt P68876)
T1 sequence: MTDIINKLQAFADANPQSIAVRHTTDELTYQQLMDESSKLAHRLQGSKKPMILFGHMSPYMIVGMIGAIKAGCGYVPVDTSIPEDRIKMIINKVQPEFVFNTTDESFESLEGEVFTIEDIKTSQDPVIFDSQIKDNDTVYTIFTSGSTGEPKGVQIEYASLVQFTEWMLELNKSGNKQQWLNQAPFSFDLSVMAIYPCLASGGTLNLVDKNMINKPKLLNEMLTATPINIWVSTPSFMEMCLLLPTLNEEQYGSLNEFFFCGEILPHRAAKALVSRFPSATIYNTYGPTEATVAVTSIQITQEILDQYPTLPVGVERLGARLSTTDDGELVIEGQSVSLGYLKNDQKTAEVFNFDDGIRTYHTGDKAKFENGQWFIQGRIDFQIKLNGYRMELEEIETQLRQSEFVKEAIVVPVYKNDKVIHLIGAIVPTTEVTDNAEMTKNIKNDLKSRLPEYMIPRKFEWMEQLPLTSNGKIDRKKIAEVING

B1: wild-type S. aureus DltC, Ppant-modified (natural protein)
chain: MEFREQVLNLLAEVAENDIVKENPDVEIFEEGIIDSFQTVGLLLEIQNKLDIEVSIMDFDRDEWATPNKIVEALEELR
modifications: 4'-phosphopantetheinyl (Ppant) group at Ser36
B1 gave an adenylation activity of SaDltA (5 µM; initial rate, pyrophosphate-detection assay, 5 mM D-alanine) in the presence of 300 µM wild-type SaDltC, against SaDltA alone of 7.2 fold.
